Target: T1, native GST (UniProt P08515 1-218 = GST)
T1 construct: also called rGST; GST alone
Assay: pull-down of 35S-labeled rIL-16 on GST-coated glutathione-Sepharose beads, autoradiography (control for non-specific binding)
Procedure: Specificity of the interaction between rIL-16 and D3D4 was assessed by competition with an excess of unlabeled rIL-16. ³⁵S-labeled rIL-16 incubated with GST (lane 1); ³⁵S-labeled rIL-16 incubated with GST-D3D4 (lane 2); ³⁵S-labeled rIL-16 plus excess unlabelled rIL-16 incubated with GST-D3D4 (lane 3); ³⁵S-labeled rIL-16 plus 10 ug/ml peptide A (lane 4); ³⁵S-labeled rIL-16 plus 10 ug/ml peptide B (lane 5); ³⁵S-labeled rIL-16 plus 10 ug/ml peptide C (lane 6); ); ³⁵S-labeled rIL-16 plus 10 ug/ml peptide A and peptide B (lane 7). The arrow indicates the position of IL-16 on the gel. The identity of this band was re-confirmed by immunoblotting with anti-IL-16 antibody.
To investigate IL-16 interaction with the D3D4 of CD4, the GST-D3D4 fusion protein, or GST alone, was bound to the glutathione-conjugated Sepharose 4B beads. Five ul of the in vitro translation product containing ³⁵S-labeled rIL16 was added to 15 ul of the bead-bound proteins in 230 ul of PBS and 50 ul of NETN buffer (150 mM NaCl, 1 mM EDTA, 0.5% NP 40, and 50 mM Tris, pH 8.0). After incubating at 4° C. for 2 h, the beads were washed 3 times in NETN buffer. The GST-D3D4 or GST proteins were released from the beads by boiling in SDS gel loading buffer, and the supernatant was analyzed by 12% SDS-polyacrylamide gel electrophoresis (SDS-PAGE). The presence of ³⁵S-labeled mrIL16 was detected by autoradiography of the dried gel. […]

T1 sequence (P08515 whole entry): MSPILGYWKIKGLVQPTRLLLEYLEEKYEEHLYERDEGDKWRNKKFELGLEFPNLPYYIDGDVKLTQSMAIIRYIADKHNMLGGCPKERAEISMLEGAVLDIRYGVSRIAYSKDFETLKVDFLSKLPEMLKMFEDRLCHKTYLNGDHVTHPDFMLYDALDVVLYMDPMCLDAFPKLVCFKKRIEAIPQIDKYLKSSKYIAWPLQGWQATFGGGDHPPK

B1: 35S-labeled murine rIL-16 (in vitro transcription and translation product, C-terminal 119 amino acids) (ligand, mouse, UniProt O54824 1204-1322, looked up)
chain: DSAASASAASDISVESKEATVCTVTLEKTSAGLGFSLEGGKGSLHGDKPLTINRIFKGTEQGEMVQPGDEILQLAGTAVQGLTRFEAWNVIKALPDGPVTIVIRRTSLQCKQTTASADS
modifications: [35S] methionine
notes: domain: C-terminal 119 amino acids; also called radiolabeled murine IL-16; 35S-labeled rIL-16
B1: no binding.

Source: patent US20020147151A1 (TRUSTEES OF BOSTON UNIVERSITY, published 2002)
